From the supplement of paper PMC10724198
± gives the standard deviation of the averaged measurements.

test system: Saccharomyces cerevisiae; assay: protein stability index of tFT-peptide fusion (C-terminal peptide) (PSI (0-1 scale)); higher = more stable (slower turnover); settings: genetic background: wild type; temperature: 30 C
Description: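 Multiplexed protein stability (MPS) profiling in S. cerevisiae. Random 12-aa peptides (tFT-X12 library) are fused to the C-terminus of a sfGFP-mCherry tandem fluorescent timer, after mCherry and a GGGS linker. Cells are FACS-sorted into 8 mCherry/sfGFP bins and deep-sequenced. The protein stability index (PSI) is the read-weighted bin average, scaled from 0 (unstable) to 1 (stable). Only peptides with >10 reads are reported; cells were grown at 30 °C in SC-His with glucose.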
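Also: PSI is a weighted mean of sequencing reads over stability bins, variants kept only with over 10 reads, mCherry proximal and sfGFP distal, peptide attached via GGGS linker.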

| Sequence | protein stability index |
| --- | --- |
| GYSFWSCVAFFS | 0.628 ± 0.0068 |
| GYSPLHPILLGL | 0.577 ± 0.013 |
| HAEREDTESQTR | 0.714 ± 0.05 |
| HAKVFLMGCSYV | 0.692 ± 0.072 |
| HALSVDPAFKQS | 0.66 ± 0.05 |
| HATPPPLPSPPL | 0.71976 ± 0.0003 |
| HCLLPLTTRRGR | 0.7 ± 0.026 |
| HDAKIGTSTCWV | 0.654 ± 0.024 |
| HDGPYPALLATK | 0.606 ± 0.069 |
| HDHRTLMRQPTR | 0.697 ± 0.037 |
| HDMTGARKTHIA | 0.676 ± 0.023 |
| HDRIHWDLDLSE | 0.617 ± 0.041 |
| HEGHVWGIRGTG | 0.683 ± 0.11 |
| HEKTGNNHKRGH | 0.628 ± 0.19 |
| HERPVVLYGCTS | 0.637 ± 0.02 |
| HFIDFVVVSFSI | 0.548 ± 0.095 |
| HFSLCSNRSNPP | 0.646 ± 0.015 |
| HFSTSFYSSAFR | 0.631 ± 0.026 |
| HGAEAWPDVGPG | 0.639 ± 0.021 |
| HGGEPHPSFGFS | 0.697 ± 0.062 |
| HGIGRDTSEHGR | 0.645 ± 0.025 |
| HGLGSWGTFLGV | 0.655 ± 0.021 |
| HGPGGFRAGTGE | 0.724 ± 0.027 |
| HGRSGGGKGAER | 0.674 ± 0.038 |
| HGSDLSILRIEI | 0.722 ± 0.07 |

| Sequence | protein stability index |
| --- | --- |
| HHCGGRVLGAGG | 0.7073 ± 0.0056 |
| HHPTTQRLSVIH | 0.742 ± 0.042 |
| HHRRRRTTDVSL | 0.75 ± 0.049 |
| HIEGRKHKDVAM | 0.668 ± 0.062 |
| HKVETHQIIQIK | 0.726 ± 0.043 |
| HLFAISGGKERI | 0.6966 ± 0.0039 |
| HLFVCGNGVSAT | 0.684 ± 0.029 |
| HLGHPSSRPSCL | 0.72 ± 0.057 |
| HLGQPRPSCPLF | 0.662 ± 0.088 |
| HLLLLDLTRPIL | 0.745 ± 0.061 |
| HLLRGSSPDRYV | 0.737 ± 0.019 |
| HLRIAHTPDSPR | 0.703 ± 0.0082 |
| HLSSPPSLLPPP | 0.657 ± 0.05 |
| HLSWFSPFFASG | 0.772 ± 0.018 |
| HLVPYVVKHLVP | 0.6785 ± 0.0062 |
| HLWAPRQNTIRY | 0.649 ± 0.091 |
| HMRPSTRLMPAG | 0.593 ± 0.01 |
| HNGYLKRIKISR | 0.707 ± 0.085 |
| HNSRTVPISVSV | 0.528 ± 0.038 |
| HNVLVYCGCALG | 0.6032 ± 0.0036 |
| HPAALTPVPALH | 0.661 ± 0.036 |
| HPFSLGSLVASW | 0.6412 ± 0.0027 |
| HPISLSYPSPFV | 0.665 ± 0.13 |
| HPPAFSAKTFPS | 0.683 ± 0.043 |
| HPPPPRLPPRPP | 0.63 ± 0.02 |

| Sequence | protein stability index |
| --- | --- |
| HPPRPPPRSPPP | 0.656 ± 0.1 |
| HPPSLPPLPPPL | 0.727 ± 0.054 |
| HPPSPPSRVSPS | 0.594 ± 0.032 |
| HPPTCTTVLPTL | 0.579 ± 0.023 |
| HPTDPPFRNTTA | 0.6996 ± 0.0043 |
| HPTLPSLQVSPS | 0.689 ± 0.031 |
| HQLSQYEGARTL | 0.733 ± 0.064 |
| HQRIKLMPEVWS | 0.689 ± 0.056 |
| HRAPACEHDIKK | 0.705 ± 0.015 |
| HRKVCARHNWEE | 0.673 ± 0.046 |
| HRLQGQGAWYVT | 0.643 ± 0.061 |
| HRPGYLTSSASD | 0.65 ± 0.062 |
| HRPPPPPSPSHL | 0.686 ± 0.01 |
| HRQAFSAVPCIH | 0.588 ± 0.042 |
| HRSHVRHSFPNP | 0.703 ± 0.038 |
| HRTSVRIPIPPI | 0.683 ± 0.012 |
| HRWCLADYVEVG | 0.773 ± 0.063 |
| HRWSRGIDATGV | 0.665 ± 0.083 |
| HSCPLLLAPPPS | 0.608 ± 0.058 |
| HSCYGHIRVSFC | 0.705 ± 0.0098 |
| HSGAPFPPDSPR | 0.783 ± 0.16 |
| HSINNVITNNTE | 0.678 ± 0.017 |
| HSSLHLTRALCL | 0.677 ± 0.043 |
| HSSRSPPPSPYA | 0.709 ± 0.042 |
| HSSSASPPISSF | 0.657 ± 0.041 |

| Sequence | protein stability index |
| --- | --- |
| HSTEKGIMLNEY | 0.704 ± 0.19 |
| HSTESHHQLDNQ | 0.649 ± 0.026 |
| HSTPPSPAPPTA | 0.675 ± 0.062 |
| HSVVANECHQGQ | 0.766 ± 0.11 |
| HTAITSGYSRGL | 0.633 ± 0.049 |
| HTGTCSVLPHTL | 0.663 ± 0.052 |
| HTLQDNHRLPRA | 0.6058 ± 0.0029 |
| HTPRLRRMRDYH | 0.658 ± 0.087 |
| HTRIGDGSRLLA | 0.72666 ± 0.00065 |
| HVHLHSTTAPPP | 0.695 ± 0.015 |
| HVTHPGCTLQLR | 0.707 ± 0.071 |
| HWLGCDESRGWV | 0.668 ± 0.037 |
| HYFRSIFLFVVR | 0.506 ± 0.017 |
| HYGQRKKEFRLT | 0.73 ± 0.0075 |
| HYWTTENDWPHG | 0.705 ± 0.025 |
| IADLGDLTKVTL | 0.693 ± 0.019 |
| IALACPGGSYIV | 0.6739 ± 0.0024 |
| IALTSVRIPSSP | 0.678 ± 0.047 |
| IARSVLRIGVWG | 0.612 ± 0.045 |
| IASASGAQAGAR | 0.636 ± 0.017 |
| ICAPSPSPAFTF | 0.689 ± 0.0086 |
| ICMGSLLYVGPC | 0.5515 ± 0.0034 |
| ICVYGGRKISPG | 0.6877 ± 0.00097 |
| IDLWGNGRCVEL | 0.701 ± 0.048 |
| IEKVKIMNKERN | 0.692 ± 0.017 |

| Sequence | protein stability index |
| --- | --- |
| IFFRARRLEAHT | 0.608 ± 0.019 |
| IFGMSIMLNRIT | 0.541 ± 0.041 |
| IFGVSRTGIRCT | 0.56 ± 0.011 |
| IFKNAWSSYRIE | 0.714 ± 0.037 |
| IFPRPHVDIPLL | 0.922 ± 0.075 |
| IFRSCCLLGLCL | 0.591 ± 0.099 |
| IFYCPPVPTFPL | 0.697 ± 0.024 |
| IGEGLLFWFGIR | 0.66 ± 0.042 |
| IGGAMLSPLKVR | 0.55 ± 0.021 |
| IGGDLGRDSTCL | 0.592 ± 0.11 |
| IGGGPLWLVNNM | 0.6748 ± 0.0054 |
| IGGYNRTFELMG | 0.678 ± 0.032 |
| IGRVSVWDQKVA | 0.673 ± 0.054 |
| IGSDFQLFLEGC | 0.668 ± 0.044 |
| IGSEKGKIGVGC | 0.677 ± 0.067 |
| IGTGHPRTGLSR | 0.682 ± 0.031 |
| IIFRLLLSRFFL | 0.543 ± 0.022 |
| IIRAGVPLSISE | 0.652 ± 0.019 |
| IIRKQQAKKVEL | 0.681 ± 0.025 |
| IIRSKGTKSMHK | 0.691 ± 0.013 |
| IIYKPEKMRPKS | 0.7146 ± 0.0068 |
| IKFMTTGVRTMG | 0.662 ± 0.03 |
| IKKKKKKIKRNN | 0.654 ± 0.0099 |
| IKKKKRRKEQEK | 0.7477 ± 0.0035 |
| IKKKTKQKQHEK | 0.786 ± 0.3 |

| Sequence | protein stability index |
| --- | --- |
| IKKRKQYCKRIK | 0.6801 ± 0.0048 |
| IKRIDQYEKQNK | 0.659 ± 0.07 |
| IKRIYQKKIERK | 0.762 ± 0.067 |
| ILDNWQFSYIKD | 0.713 ± 0.051 |
| ILDRRTKREDLK | 0.667 ± 0.038 |
| ILKQYLHRRFEF | 0.709 ± 0.057 |
| ILLFISGPPMSF | 0.735 ± 0.062 |
| ILRPAPVFPLDP | 0.689 ± 0.0089 |
| ILSCLLRSSFQC | 0.606 ± 0.045 |
| ILSSPGLLLFRL | 0.5449 ± 0.005 |
| ILWFYSDSPWLS | 0.763 ± 0.11 |
| IMDHKSNSDKWI | 0.7193 ± 0.0011 |
| IMKKKKNKARDI | 0.75 ± 0.055 |
| IMSFTLLAPGQM | 0.692 ± 0.019 |
| INHNKNKTIIAL | 0.655 ± 0.0075 |
| INRDKLNRRKKL | 0.687 ± 0.038 |
| INSKTRIQVTEN | 0.73 ± 0.035 |
| INSSPRSSTLLL | 0.686 ± 0.034 |
| INWNVMDRVTCN | 0.633 ± 0.12 |
| IPLLEALLQLAA | 0.562 ± 0.014 |
| IPLSFDRLLLID | 0.63 ± 0.015 |
| IPPCRSFSYIAT | 0.68 ± 0.048 |
| IPPLNQDPFCAS | 0.678 ± 0.017 |
| IPPSSLSSPLPP | 0.704 ± 0.019 |
| IPQIVRKLVPLT | 0.575 ± 0.007 |

| Sequence | protein stability index |
| --- | --- |
| IPSVRATDGKIM | 0.649 ± 0.024 |
| IRCHSERKSWMY | 0.7 ± 0.065 |
| IRDLFHHFFLSV | 0.654 ± 0.038 |
| IRIIETPDSFYK | 0.795 ± 0.058 |
| IRIKKGMETGKL | 0.69 ± 0.0084 |
| IRIKKQRKEKRK | 0.734 ± 0.048 |
| IRLSVPGLTCVS | 0.504 ± 0.0031 |
| IRPFALSPSSLP | 0.658 ± 0.12 |
| IRRKYEGNKEQN | 0.721 ± 0.069 |
| IRSRSVTKYGWS | 0.606 ± 0.025 |
| IRVGVESGSRGR | 0.728 ± 0.22 |
| IRVLDVWRSGHL | 0.737 ± 0.0079 |
| ISPFPSFPPTLS | 0.734 ± 0.064 |
| ISPLPPVPAGLS | 0.6906 ± 0.0056 |
| ISPTPPAPSRPS | 0.688 ± 0.015 |
| ISRATMKARARG | 0.6522 ± 0.004 |
| ISVSGLVVSVGP | 0.649 ± 0.011 |
| ISWTRAPLAHPR | 0.879 ± 0.17 |
| ITLQGDWCRLVD | 0.715 ± 0.092 |
| ITWFRKVGAYGA | 0.644 ± 0.069 |
| IVFRLGRFCGRV | 0.709 ± 0.018 |
| IVNLAQAEFVVT | 0.645 ± 0.039 |
| IVRTKLHPIGTS | 0.655 ± 0.043 |
| IVSPGSLAGCSV | 0.675 ± 0.034 |
| IVTGMGVVHIWR | 0.698 ± 0.04 |

| Sequence | protein stability index |
| --- | --- |
| IVTSPRPPRCTS | 0.7193 ± 0.0051 |
| IVVRAGGCSVGW | 0.695 ± 0.081 |
| IYNDPYYLIKAR | 0.644 ± 0.018 |
| IYPRLGPHSLVC | 0.589 ± 0.016 |
| KAPCRVGARKGG | 0.688 ± 0.051 |
| KCKLLKIMKKKE | 0.636 ± 0.13 |
| KDANACSCDATS | 0.6774 ± 0.0026 |
| KDDKQRKQHGKK | 0.6632 ± 0.0046 |
| KDKKKNQNRKKN | 0.661 ± 0.038 |
| KDKRNEGSGLCK | 0.645 ± 0.022 |
| KDNCHSNQRELT | 0.663 ± 0.046 |
| KEEAKRPQSNET | 0.706 ± 0.02 |
| KEEAQKMKKIGE | 0.752 ± 0.096 |
| KEKSRNIKKRRK | 0.705 ± 0.079 |
| KEKYEQIDIGKN | 0.719 ± 0.066 |
| KELESKLISKKR | 0.75 ± 0.068 |
| KEREGSRKETKH | 0.694 ± 0.01 |
| KEYRTKNNKGRK | 0.654 ± 0.11 |
| KFHPRPPSRVLR | 0.6542 ± 0.0022 |
| KFWRCVVVGYGL | 0.641 ± 0.099 |
| KGHMYEFRKGVR | 0.68 ± 0.011 |
